The values below come from US20080176263.

For series [1], the target named is T1, TNO211 peptide (DABCYL-GABA-Pro-Gln-Gly-Leu-Glu(EDANS)-Ala-Lys-NH2).
T1 chain: PQGLEAK

B1: proteinase K (protein)
chain: AAQTNAPWGLARISSTSPGTSTYYYDESAGQGSCVYVIDTGIEASHPEFEGRAQMVKTYYYSSRDGNGHGTHCAGTVGSRTYGVAKKTQLFGVKVLDDNGSGQYSTIIAGMDFVASDKNNRNCPKGVVASLSLGGGYSSSVNSAAARLQSSGVMVAVAAGNNNADARNYSPASEPSVCTVGASDRYDRRSSFSNYGSVLDIFGPGTSILSTWIGGSTRSISGTSMATPHVAGLAAYLMTLGKTTAASACRYIADTANKGDLSNIPFGTVNLLAYNNYQA
With B1, the “visible color from cleavage of the dye-labelled immobilized substrate” value with Substrate AA is “AA substrate reacted with pronase and proteinase K did produce a visible color within 2.5 h at 37 °C”. In the series with RH substrate, the “cleavage of the dye-labelled immobilized substrate (color generation)” value is recorded as “none of the enzyme preparations were successful in cleaving the RH substrate”.

B2: MMP-2 (protein)
chain: YNFFPRKPKWDKNQITYRIIGYTPDLDPETVDDAFARAFQVWSDVTPLRFSRIHDGEADIMINFGRWEHGDGYPFDGKDGLLAHAFAPGTGVGGDSHFDDDELWTLGEGQVVRVKYGNADGEYCKFPFLFNGKEYNSCTDTGRSDGFLWCSTTYNFEKDGKYGFCPHEALFTMGGNAEGQPCKFPFRFQGTSYDSCTTEGRTDGYRWCGTTEDYDRDKKYGFCPETAMSTVGGNSEGAPCVFPFTFLGNKYESCTSAGRSDGKMWCATTANYDDDRKWGFCPDQGYSLFLVAAHEFGHAMGLEHSQDPGALMAPIYTYTKNFRLSQDDIKGIQELYGASPDIDLGTGPTPTLGPVTPEICKQDIVFDGIAQIRGEIFFFKDRFIWRTVTPRDKPMGPLLVATFWPELPEKIDAVYEAPQEEKAVFFAGNEYWIYSASTLERGYPKPLTSLGLPPDVQRVDAAFNWSKNKKTYIFAGDKFWRYNEVKKKMDPGFPKLIADAWNAIPDNLDAVVDLQGGGHSYFFKGAYYLKLENQSLKSVKFGSIKSDWLGC
On to B2, for which the “protease activity (fluorescence from cleavage of substrate TNO211), relative to pronase” value in series [1] is listed as 17±4%.
